Biological target: amyloid-beta oligomers prepared from synthetic Aβ1-42 (UniProt P05067)
Test: cell-based or functional assay

Sequence of UniProt P05067 (P05067 672-713 limits assumed): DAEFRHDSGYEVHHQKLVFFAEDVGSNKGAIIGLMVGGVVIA

- AβO binding to dendrites in hippocampal neurons (NU4 immunoreactivity): 50 % decrease
Substance: NUsc1 scFv expressed and secreted by neurons transduced with the AAV9 vector AAV-NUsc1
